T1: GST-BAK (human)
T1 chain: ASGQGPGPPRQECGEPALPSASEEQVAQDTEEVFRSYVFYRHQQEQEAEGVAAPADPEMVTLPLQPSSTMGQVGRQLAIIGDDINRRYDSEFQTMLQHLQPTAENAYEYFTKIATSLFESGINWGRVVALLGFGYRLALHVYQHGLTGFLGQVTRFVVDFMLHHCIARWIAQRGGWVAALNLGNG

T2: tevBAK (residues 22–186) (human, UniProt Q16611 22-186)
T2 chain: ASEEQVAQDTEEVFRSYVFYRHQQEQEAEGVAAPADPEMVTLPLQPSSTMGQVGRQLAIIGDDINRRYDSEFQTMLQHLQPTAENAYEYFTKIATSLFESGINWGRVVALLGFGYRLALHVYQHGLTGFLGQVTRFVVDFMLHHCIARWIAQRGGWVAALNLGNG


Target: T1, GST-BAK
Experiment: FP

Binder	IC50
Ac-EDIWRNIARHLAQVGDSMDRSI-NH2 [W(0) BID BH3 peptide]	10.8 µM
Ac-EDIIRNIARHLAQMGDSMDRSI-NH2 [M(3) BID BH3 peptide]	4.6 µM
Ac-EDIIRNIARHLAQWGDSMDRSI-NH2 [W(3) BID BH3 peptide]	6.6 µM
Ac-EDIIRNIARHLAQVGDSFDRSI-NH2 [F(4) BID BH3 peptide]	11.9 µM
Ac-EDIIRNIARHLAQFGDSMDRSI-NH2 [F(3) BID BH3 peptide]	11.3 µM

Further lines, results first:

IC50	Binder
6.9 µM	Ac-EDIIRNIARHLAQVGDSYDRSI-NH2 [Y(4) BID BH3 peptide]
8.8 µM	Ac-EDIIRNIARHLAQVGDSMDRSW-NH2 [W(5) BID BH3 peptide]
12.2 µM	Ac-EDIIRNIARHLAQVGDSMDRSI-NH2 [WT BID BH3 peptide]
11.5 µM	Ac-EDIIRNIARHLAQVGDSWDRSI-NH2 [W(4) BID BH3 peptide]
6.2 µM	Ac-EDIIRNIARHLAQYGDSMDRSI-NH2 [Y(3) BID BH3 peptide]

Target: T2, tevBAK (residues 22–186)
Experiment: ITC

Kd	Binder
0.25 µM	Ac-EDIIRNIARHLAQWGDSMDRSW-NH2 [W(3)W(5) BID BH3 peptide]
22.7 µM	Ac-EDIIRNIARHLAQVGDSMDRSI-NH2 [WT BID BH3 peptide]

Reference: publication PMC8752837 (2022)
